From the MegaScale stability set (Tsuboyama et al. 2023)

B1: EEHEE_rd4_0647 (parent)
chain: MQVTWGNVTVTFSNPEEAKKYAEKVARKLGGQVELHNGQFRIK

Variants of: B1
Assay: folding stability dG (cDNA display proteolysis); higher = more stable
Conditions: PBS, room temperature

| Variant | folding stability dG [kcal/mol] |
| --- | --- |
| MRVTWGNVTVTFSNPEEAKKYAEKVARKLGGQVELHNGQFRIK [Q2R] | 2.72 |
| MSVTWGNVTVTFSNPEEAKKYAEKVARKLGGQVELHNGQFRIK [Q2S] | 3.04 |
| MYVTWGNVTVTFSNPEEAKKYAEKVARKLGGQVELHNGQFRIK [Q2Y] | 2.23 |
| MAVTWGNVTVTFSNPEEAKKYAEKVARKLGGQVELHNGQFRIK [Q2A] | 2.64 |
| MQVTWGNVTVTFSNPEEAKKYSEKVARKLGGQVELHNGQFRIK [A22S] | 1.24 |
| MQVTWGNVTVTFSNPEEAKKYGEKVARKLGGQVELHNGQFRIK [A22G] | 0.944 |
| MQVTWGNVTVTFSNPEEAKKYAEKVARKLGGQVELHNGQFRIW [K43W] | 2.67 |
| MQVTWGNVTVTFSNPEEAKKYAEKVARKLGGQVELHNGQFRII [K43I] | 3.52 |
| MQVTWGNVTVTFSNPEEAKKYAEKVARKLGGQVELHNGQFRIY [K43Y] | 2.88 |
| MQVTWGNVTVTFSNPREAKKYAEKVARKLGGQVELHNGQFRIK [E16R] | 2.55 |
| MQVTWGNVTVTFSNPCEAKKYAEKVARKLGGQVELHNGQFRIK [E16C] | 3.18 |
| MQVTWGNVTVTFSNPQEAKKYAEKVARKLGGQVELHNGQFRIK [E16Q] | 2.7 |
| MQVTWGNVTVTFSNPGEAKKYAEKVARKLGGQVELHNGQFRIK [E16G] | 2.54 |
| MQVTWGNVTVTFSNPVEAKKYAEKVARKLGGQVELHNGQFRIK [E16V] | 2.81 |
| MQVTWGNVTVTFSNPEEAKKYAEKVARKLGGQVELHNGQKRIK [F40K] | 0.481 |
| MQVTWGNVTVTFSNPEEAKKYAEKFARKLGGQVELHNGQFRIK [V25F] | 1.79 |
| MQVTWGNVTVTFSNPETAKKYAEKVARKLGGQVELHNGQFRIK [E17T] | 2.74 |
| MQVTWGNVTVTFSNPENAKKYAEKVARKLGGQVELHNGQFRIK [E17N] | 2.47 |
| MQVTWGNVTVTFSNPECAKKYAEKVARKLGGQVELHNGQFRIK [E17C] | 3.18 |
| MQVTWGNVTVTFSNPESAKKYAEKVARKLGGQVELHNGQFRIK [E17S] | 2.73 |

| Variant | folding stability dG [kcal/mol] |
| --- | --- |
| MQVTWGNVTVTFSNPEGAKKYAEKVARKLGGQVELHNGQFRIK [E17G] | 1.97 |
| MQVTWGNVTVTFSNPEEAKKFAEKVARKLGGQVELHNGQFRIK [Y21F] | 3.05 |
| MQVTWGNVTVTFSNPEEAKKHAEKVARKLGGQVELHNGQFRIK [Y21H] | 1.36 |
| MQVTWGNVTVTFSNPEEAKKTAEKVARKLGGQVELHNGQFRIK [Y21T] | 0.931 |
| MQVTWGNVTVTFSNPEEAKKKAEKVARKLGGQVELHNGQFRIK [Y21K] | 0.616 |
| MQVTWGNVTVTFSNPEEAKKMAEKVARKLGGQVELHNGQFRIK [Y21M] | 1.71 |
| MQVTWGNVTVTFSNPEEAKKIAEKVARKLGGQVELHNGQFRIK [Y21I] | 1.34 |
| MQVTWGNVTVTFSNPEEAKKYAEKVARKLGGRVELHNGQFRIK [Q32R] | 2.89 |
| MQVTWGNVTVTFSNPEEAKKYAEKVARKLGGVVELHNGQFRIK [Q32V] | 3.29 |
| MQVTWGNVTVTFSNPEEAKKYAEKVARKLGGWVELHNGQFRIK [Q32W] | 3.18 |
| MQVTWGNVTVTFSNPEEAKKYAEKVARKLGGLVELHNGQFRIK [Q32L] | 2.74 |
| MQVTWGNVTVTFSNPEEAKKYAEKVARKLGGYVELHNGQFRIK [Q32Y] | 3.33 |
| MQVTWGNVTVTFSNPEEAKKYAEKVVRKLGGQVELHNGQFRIK [A26V] | 1.66 |
| MQVTWGNVTVTFSNPEEAKKYAEDVARKLGGQVELHNGQFRIK [K24D] | 2.73 |
| MQVTWGNVTVTFSNPEEAKKYAELVARKLGGQVELHNGQFRIK [K24L] | 2.93 |
| MQVTNGNVTVTFSNPEEAKKYAEKVARKLGGQVELHNGQFRIK [W5N] | 1.12 |
| MQVTCGNVTVTFSNPEEAKKYAEKVARKLGGQVELHNGQFRIK [W5C] | 3.09 |
| MQVTAGNVTVTFSNPEEAKKYAEKVARKLGGQVELHNGQFRIK [W5A] | 1.17 |
| MQVTQGNVTVTFSNPEEAKKYAEKVARKLGGQVELHNGQFRIK [W5Q] | 0.719 |
| MQVTWGNVTVTFSNPEEAKKYAEKVARCLGGQVELHNGQFRIK [K28C] | 3.7 |

| Variant | folding stability dG [kcal/mol] |
| --- | --- |
| MQVTWGNVTVTFSNPEEAKKYAEKVARMLGGQVELHNGQFRIK [K28M] | 3.09 |
| MQVTWGNVTVTFSNPEEAKKYAEKVARLLGGQVELHNGQFRIK [K28L] | 3.15 |
| MQVTWGNVTVTFSNPEEAKKYAEKVARKLGGQVELHEGQFRIK [N37E] | 2.56 |
| MQVTWGNVTVTFSNPEEAKKYAEKVARKLGGQVELHQGQFRIK [N37Q] | 2.27 |
| MQVTWGNVTVTFSNPEEAKKYAEKVARKLGGQVELHFGQFRIK [N37F] | 1.9 |
| MQVTWGNVTQTFSNPEEAKKYAEKVARKLGGQVELHNGQFRIK [V10Q] | 1.85 |
| MQVTWGNVTLTFSNPEEAKKYAEKVARKLGGQVELHNGQFRIK [V10L] | 2.76 |
| MQVTWGNVTVTFSNPEEGKKYAEKVARKLGGQVELHNGQFRIK [A18G] | 1.05 |
| MQVTWGNVTVTFSNPEENKKYAEKVARKLGGQVELHNGQFRIK [A18N] | 0.024 |
| MQVTWGNVTVTFSNPEEKKKYAEKVARKLGGQVELHNGQFRIK [A18K] | 0.212 |
| MQVTWGNVFVTFSNPEEAKKYAEKVARKLGGQVELHNGQFRIK [T9F] | 1.95 |
| MQVTWGNVTVTFSNPEEAKKYAEKVARKLGGQVELHNGQFRQK [I42Q] | 0.449 |
| MQVTWGNVTVTFSNPEEAKKYAEKVARKLGGQVELHNGQFRNK [I42N] | 0.564 |
| MQVTWGNVTVTFSNPEEAKKYAEKVARKLGGQVELHNGQFRCK [I42C] | 1.95 |
| MQVTWGNVTVTFSLPEEAKKYAEKVARKLGGQVELHNGQFRIK [N14L] | 2.23 |
| MQVTWGNVTVTFSDPEEAKKYAEKVARKLGGQVELHNGQFRIK [N14D] | 2.79 |
| MQVTWGNVTVAFSNPEEAKKYAEKVARKLGGQVELHNGQFRIK [T11A] | 2.38 |
| MQVTWGNVTVFFSNPEEAKKYAEKVARKLGGQVELHNGQFRIK [T11F] | 3 |
| MQVTWGNVTVHFSNPEEAKKYAEKVARKLGGQVELHNGQFRIK [T11H] | 2.72 |
